What was measured:
[1] = test system: HeLa Kyoto; assay: solubility in G1/S (NP-40 vs SDS abundance) (log2 ratio); higher = more soluble; conditions: cell cycle stage: G1/S
[2] = test system: HeLa Kyoto; assay: thermal stability score vs G1/S (z-score of summed log2 fold changes over temperatures); higher = more thermally stable than in G1/S
[3] = test system: HeLa Kyoto; assay: melting temperature (median over replicates), in situ; higher = more thermally stable
[4] = test system: HeLa Kyoto; assay: solubility change mitosis vs G1/S (difference of NP-40 vs SDS log2 ratios) (log2 ratio difference); higher = more soluble in mitosis
[5] = cell cycle stage: early G1 (4.5 h after nocodazole release)
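For melting temperature (median over replicates), in situ in this document: HeLa Kyoto cells synchronized by double thymidine or nocodazole block, proteins quantified by TMT10plex mass spectrometry, three independent biological replicates.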
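For solubility change mitosis vs G1/S (difference of NP-40 vs SDS log2 ratios) in this document: synchronized HeLa Kyoto cells (double thymidine block for G1/S, nocodazole release for mitosis), protein amounts in NP-40 versus SDS lysates quantified by mass spectrometry, three biological replicates.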
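For solubility in G1/S (NP-40 vs SDS abundance) in this document: HeLa Kyoto cells arrested at G1/S by double thymidine block, proteins quantified by TMT10plex mass spectrometry in mild NP-40 versus SDS extracts, three biological replicates.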
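For thermal stability score vs G1/S (z-score of summed log2 fold changes over temperatures) in this document: synchronized HeLa Kyoto cells, proteins quantified by TMT10plex mass spectrometry, three biological replicates, mitosis taken 0.5 h after nocodazole release, G1/S directly after double thymidine block.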

Sequence	solubility in G1/S (log2) [1]	thermal stability score [2, 5]	thermal stability score ([2]; cell cycle stage: mitosis)	melting temperature ([3]; cell cycle stage: G1/S)	melting temperature ([3]; cell cycle stage: mitosis)	solubility change mitosis (log2) [4]
MASASGAMAKHEQILVLDPPTDLKFKGPFTDVVTTNLKLRNPSDRKVCFKVKTTAPRRYCVRPNSGIIDPGSTVTVSVMLQPFDYDPNEKSKHKFMVQTIFAPPNTSDMEAVWKEAKPDELMDSKLRCVFEMPNENDKLNDMEPSKAVPLNASKQDGPMPKPHSVSLNDTETRKLMEECKRLQGEMMKLSEENRHLRDEGLRLRKVAHSDKPGSTSTASFRDNVTSPLPSLLVVIAAIFIGFFLGKFIL [VAPA]	0.735	-1.27	-1.24	54.1 °C	54.5 °C	0.0815
MASASTSKYNSHSLENESIKRTSRDGVNRDLTEAVPRLPGETLITDKEVIYICPFNGPIKGRVYITNYRLYLRSLETDSSLILDVPLGVISRIEKMGGATSRGENSYGLDITCKDMRNLRFALKQEGHSRRDMFEILTRYAFPLAHSLPLFAFLNEEKFNVDGWTVYNPVEEYRRQGLPNHHWRITFINKCYELCDTYPALLVVPYRASDDDLRRVATFRSRNRIPVLSWIHPENKTVIVRCSQPLVGMSGKRNKDDEKYLDVIRETNKQISKLTIYDARPSVNAVANKATGGGYESDDAYHNAELFFLDIHNIHVMRESLKKVKDIVYPNVEESHWLSSLESTHWLEHIKLVLTGAIQVADKVSSGKSSVLVHCSDGWDRTAQLTSLAMLMLDSFYRSIEGFEILVQKEWISFGHKFASRIGHGDKNHTDADRSPIFLQFIDCVWQMSKQFPTAFEFNEQFLIIILDHLYSCRFGTFLFNCESARERQKVTERTVSLWSLINSNKEKFKNPFYTKEINRVLYPVASMRHLELWVNYYIRWNPRIKQQQPNPVEQRYMELLALRDEYIKRLEELQLANSAKLSDPPTSPSSPSQMMPHVQTHF [MTM1]	-0.0766	-1.72	-2.37	55.2 °C	54 °C	0.0496
MASASYHISNLLEKMTSSDKDFRFMATNDLMTELQKDSIKLDDDSERKVVKMILKLLEDKNGEVQNLAVKCLGPLVSKVKEYQVETIVDTLCTNMLSDKEQLRDISSIGLKTVIGELPPASSGSALAANVCKKITGRLTSAIAKQEDVSVQLEALDIMADMLSRQGGLLVNFHPSILTCLLPQLTSPRLAVRKRTIIALGHLVMSCGNIVFVDLIEHLLSELSKNDSMSTTRTYIQCIAAISRQAGHRIGEYLEKIIPLVVKFCNVDDDELREYCIQAFESFVRRCPKEVYPHVSTIINICLKYLTYDPNYNYDDEDEDENAMDADGGDDDDQGSDDEYSDDDDMSWKVRRAAAKCLDAVVSTRHEMLPEFYKTVSPALISRFKEREENVKADVFHAYLSLLKQTRPVQSWLCDPDAMEQGETPLTMLQSQVPNIVKALHKQMKEKSVKTRQCCFNMLTELVNVLPGALTQHIPVLVPGIIFSLNDKSSSSNLKIDALSCLYVILCNHSPQVFHPHVQALVPPVVACVGDPFYKITSEALLVTQQLVKVIRPLDQPSSFDATPYIKDLFTCTIKRLKAADIDQEVKERAISCMGQIICNLGDNLGSDLPNTLQIFLERLKNEITRLTTVKALTLIAGSPLKIDLRPVLGEGVPILASFLRKNQRALKLGTLSALDILIKNYSDSLTAAMIDAVLDELPPLISESDMHVSQMAISFLTTLAKVYPSSLSKISGSILNELIGLVRSPLLQGGALSAMLDFFQALVVTGTNNLGYMDLLRMLTGPVYSQSTALTHKQSYYSIAKCVAALTRACPKEGPAVVGQFIQDVKNSRSTDSIRLLALLSLGEVGHHIDLSGQLELKSVILEAFSSPSEEVKSAASYALGSISVGNLPEYLPFVLQEITSQPKRQYLLLHSLKEIISSASVVGLKPYVENIWALLLKHCECAEEGTRNVVAECLGKLTLIDPETLLPRLKGYLISGSSYARSSVVTAVKFTISDHPQPIDPLLKNCIGDFLKTLEDPDLNVRRVALVTFNSAAHNKPSLIRDLLDTVLPHLYNETKVRKELIREVEMGPFKHTVDDGLDIRKAAFECMYTLLDSCLDRLDIFEFLNHVEDGLKDHYDIKMLTFLMLVRLSTLCPSAVLQRLDRLVEPLRATCTTKVKANSVKQEFEKQDELKRSAMRAVAALLTIPEAEKSPLMSEFQSQISSNPELAAIFESIQKDSSSTNLESMDTS [CAND1]	0.0808	-0.92	-0.546	56.9 °C	56.2 °C	-0.0927
MASGQGPGPPRQECGEPALPSASEEQVAQDTEEVFRSYVFYRHQQEQEAEGVAAPADPEMVTLPLQPSSTMGQVGRQLAIIGDDINRRYDSEFQTMLQHLQPTAENAYEYFTKIATSLFESGINWGRVVALLGFGYRLALHVYQHGLTGFLGQVTRFVVDFMLHHCIARWIAQRGGWVAALNLGNGPILNVLVVLGVVLLGQFVVRRFFKS [BAK1]	-0.215	-0.0676	-0.207		55.7 °C	-0.0672
MASGSVAECLQQETTCPVCLQYFAEPMMLDCGHNICCACLARCWGTAETNVSCPQCRETFPQRHMRPNRHLANVTQLVKQLRTERPSGPGGEMGVCEKHREPLKLYCEEDQMPICVVCDRSREHRGHSVLPLEEAVEGFKEQIQNQLDHLKRVKDLKKRRRAQGEQARAELLSLTQMEREKIVWEFEQLYHSLKEHEYRLLARLEELDLAIYNSINGAITQFSCNISHLSSLIAQLEEKQQQPTRELLQDIGDTLSRAERIRIPEPWITPPDLQEKIHIFAQKCLFLTESLKQFTEKMQSDMEKIQELREAQLYSVDVTLDPDTAYPSLILSDNLRQVRYSYLQQDLPDNPERFNLFPCVLGSPCFIAGRHYWEVEVGDKAKWTIGVCEDSVCRKGGVTSAPQNGFWAVSLWYGKEYWALTSPMTALPLRTPLQRVGIFLDYDAGEVSFYNVTERCHTFTFSHATFCGPVRPYFSLSYSGGKSAAPLIICPMSGIDGFSGHVGNHGHSMETSP [TRIM27]	-0.499	1.44	3.24	50.9 °C	50.5 °C	-0.135
MASGVQVADEVCRIFYDMKVRKCSTPEEIKKRKKAVIFCLSADKKCIIVEEGKEILVGDVGVTITDPFKHFVGMLPEKDCRYALYDASFETKESRKEELMFFLWAPELAPLKSKMIYASSKDAIKKKFQGIKHECQANGPEDLNRACIAEKLGGSLIVAFEGCPV [DSTN]	0.0748	-0.977	-2.53	54.1 °C	53.3 °C	-0.06
MASKCPKCDKTVYFAEKVSSLGKDWHKFCLKCERCSKTLTPGGHAEHDGKPFCHKPCYATLFGPKGVNIGGAGSYIYEKPLAEGPQVTGPIEVPAARAEERKASGPPKGPSRASSVTTFTGEPNTCPRCSKKVYFAEKVTSLGKDWHRPCLRCERCGKTLTPGGHAEHDGQPYCHKPCYGILFGPKGVNTGAVGSYIYDRDPEGKVQP [CRIP2]	0.608	-3.58	-3.7	55 °C	53.2 °C	0.0882
MASLEVSRSPRRSRRELEVRSPRQNKYSVLLPTYNERENLPLIVWLLVKSFSESGINYEIIIIDDGSPDGTRDVAEQLEKIYGSDRILLRPREKKLGLGTAYIHGMKHATGNYIIIMDADLSHHPKFIPEFIRKQKEGNFDIVSGTRYKGNGGVYGWDLKRKIISRGANFLTQILLRPGASDLTGSFRLYRKEVLEKLIEKCVSKGYVFQMEMIVRARQLNYTIGEVPISFVDRVYGESKLGGNEIVSFLKGLLTLFATT [DPM1]	-0.0525	-2.69	1.91	53.2 °C	52.7 °C	0.0355
MASNVTNKTDPRSMNSRVFIGNLNTLVVKKSDVEAIFSKYGKIVGCSVHKGFAFVQYVNERNARAAVAGEDGRMIAGQVLDINLAAEPKVNRGKAGVKRSAAEMYGSVTEHPSPSPLLSSSFDLDYDFQRDYYDRMYSYPARVPPPPPIARAVVPSKRQRVSGNTSRRGKSGFNSKSGQRGSSKSGKLKGDDLQAIKKELTQIKQKVDSLLENLEKIEKEQSKQAVEMKNDKSEEEQSSSSVKKDETNVKMESEGGADDSAEEGDLLDDDDNEDRGDDQLELIKDDEKEAEEGEDDRDSANGEDDS [HNRNPC]	-0.0638	7.33	16.5	47.4 °C	49.5 °C	0.36

From the supplement of paper PMC5998384
